Reference: paper PMC3575853 (Nucleic Acids Research, 2013)

Columns and labels:
[1] = molecular target: RPA70 residues 181-616 (70ABC subunit of the human RPA DNA-binding core, RPA-DBC) (human, UniProt P27694 181-616); assay: SEC-MALS
[2] = molecular target: RPA-DBC (RPA70ABC/32D/14 DNA-binding core) (human, UniProt P27694;P15927;P35244 181-616;43-171;1-121); assay: SANS / gel filtration
RPA-DBC (RPA70ABC/32D/14 DNA-binding core), sequence (P27694 181-616, chain 1 of 2): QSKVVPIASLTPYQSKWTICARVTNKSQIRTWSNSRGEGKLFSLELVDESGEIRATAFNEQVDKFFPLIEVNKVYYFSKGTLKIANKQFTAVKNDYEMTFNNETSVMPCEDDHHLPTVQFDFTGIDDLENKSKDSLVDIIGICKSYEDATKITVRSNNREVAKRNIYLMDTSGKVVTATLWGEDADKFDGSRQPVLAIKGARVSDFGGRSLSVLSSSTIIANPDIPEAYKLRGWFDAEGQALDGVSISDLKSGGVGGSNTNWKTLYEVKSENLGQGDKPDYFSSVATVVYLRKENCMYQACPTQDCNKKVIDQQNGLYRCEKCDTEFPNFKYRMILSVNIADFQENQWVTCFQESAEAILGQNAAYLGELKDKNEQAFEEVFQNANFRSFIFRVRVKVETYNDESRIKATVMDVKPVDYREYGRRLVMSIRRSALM
RPA-DBC (RPA70ABC/32D/14 DNA-binding core), sequence (P35244 whole entry, chain 3 of 2): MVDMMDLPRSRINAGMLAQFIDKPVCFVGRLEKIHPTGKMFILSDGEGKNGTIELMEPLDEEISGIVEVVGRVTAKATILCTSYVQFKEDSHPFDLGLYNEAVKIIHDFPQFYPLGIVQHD

RPA70 residues 181-616 (70ABC subunit of the human RPA DNA-binding core, RPA-DBC), sequence (P27694 181-616): as the sequence (P27694 181-616, chain 1 of 2) above

| binding result [1] | Binder | binding result [2] |
| --- | --- | --- |
| binds | RPA32 residues 43-171 (32D subunit of the human RPA DNA-binding core, RPA-DBC) (domain or fragment) AQHIVPCTISQLLSATLVDEVFRIGNVEISQVTIVGIIRHAEKAPTNIVYKIDDMTAAPMDVRQWVDTDDTSSENTVVPPETYVKVAGHLRSFQNKKSLVAFKIMPLEDMNEFTTHILEVINAHMVLSK |  |
|  | TTTTTTTTTTTTTTTTTTTTTTTTTTTTTT (ssDNA) [dT30] | binds |
